Reference: patent JP2018076351A (dated 2018)

Tests used:
human PCSK9 (wild type) [1] = target: human PCSK9 (wild type) (human); assay: KinExA, solution equilibrium, PCSK9-coated beads
cynomolgus monkey PCSK9 = cynomolgus monkey PCSK9 (cynomolgus monkey, UniProt A0A7N9D9N8 150-747); assay: KinExA, solution equilibrium, PCSK9-coated beads; KD adjusted for 50 % active cPCSK9
human PCSK9 (wild type) [2] = target: human PCSK9 (wild type) (human); assay: Biacore at pH 6.0 (HBS-P with 0.01 % BSA); KD from nonlinear regression of competition curves, n=1

B1: 31H4 (antibody, V domains shown)
VH: EVQLVESGGGLVKPGGSLRLSCAASGFTFSSYSMNWVRQAPGKGLEWVSSISSSSSYISYADSVKGRFTISRDNAKNSLYLQMNSLRAEDTAVYFCARDYDFWSAYYDAFDVWGQGTMVTVSS
VL: QSVLTQPPSVSGAPGQRVTISCTGSSSNIGAGYDVHWYQQLPGTAPKLLISGNSNRPSGVPDRFSGSKSGTSASLAITGLQAEDEADYYCQSYDSSLSGSVFGGGTKLTVLQ
Q: Which results are given for B1?
A: Kd (human PCSK9 (wild type) [1]): 0.003 nM; Kd (cynomolgus monkey PCSK9): 0.002 nM; Kd (human PCSK9 (wild type) [2]): 0.0125 nM

B2: 16F12 (antibody, V domains shown)
VH: QVHLVESGGGVVQPGRSLRLSCAASGFTFNSFGMHWVRQAPGKGLEWVALIWSDGSDEYYADSVKGRFTISRDNSKNTLYLQMNSLRAEDTAVYYCARAIAALYYYYGMDVWGQGTTVTVSS
VL: QSVLTQPPSVSAAPGQKVTISCSGSSSNIGNNFVSWYQQLPGTAPKLLIYDYNKRPSGIPDRFSGSKSGTSATLGITGLQTGDEADYYCGTWDSSLSAYVFGTGTRVTVLQ
Q: How did the Kd (human PCSK9 (wild type) [1]) turn out when B2 was run?
A: The Kd was 0.015 nM.

Q: What about the Kd (cynomolgus monkey PCSK9) of the same binder?
A: The Kd was 0.016 nM.

Q: What about the Kd (human PCSK9 (wild type) [2]) of the same binder?
A: Its Kd is 0.029 nM.
